From publication PMC6882858, “Seryl tRNA synthetase cooperates with POT1 to regulate telomere length and cellular senescence” (Signal Transduction and Targeted Therapy, 2019) come the findings set out here.

The target in experiment [1] is T1, GST-fused full length SerRS (human, UniProt P49591 1-514).
T1 construct: also called GST-SerRS FL; pGEX6P-1-SerRS
As to the kind of experiment: pull-down; GST-fusion proteins bound to beads incubated with 0.5 uM purified recombinant His6-tagged protein in 500 ul GST pulldown buffer (150 mM NaCl, 20 mM HEPES pH 7.9, 0.5 mM EDTA, 0.1% Triton X-100, 10% glycerol, 1 mM DTT) overnight at 4 °C; washed 5 times; western blot with anti-His or anti-GST. The following applies: both partners purified. A general note: In western blotting, separated proteins are transferred to a membrane and probed.

Experiment [2] has as its target T2, purified His6-tagged SerRS (human, UniProt P49591 1-514).
T2 construct: also called recombinant SerRS; PET-20b-SerRS
The description is as above. The note with it: both partners purified.

T1 sequence (P49591 whole entry, the tested form may be a part): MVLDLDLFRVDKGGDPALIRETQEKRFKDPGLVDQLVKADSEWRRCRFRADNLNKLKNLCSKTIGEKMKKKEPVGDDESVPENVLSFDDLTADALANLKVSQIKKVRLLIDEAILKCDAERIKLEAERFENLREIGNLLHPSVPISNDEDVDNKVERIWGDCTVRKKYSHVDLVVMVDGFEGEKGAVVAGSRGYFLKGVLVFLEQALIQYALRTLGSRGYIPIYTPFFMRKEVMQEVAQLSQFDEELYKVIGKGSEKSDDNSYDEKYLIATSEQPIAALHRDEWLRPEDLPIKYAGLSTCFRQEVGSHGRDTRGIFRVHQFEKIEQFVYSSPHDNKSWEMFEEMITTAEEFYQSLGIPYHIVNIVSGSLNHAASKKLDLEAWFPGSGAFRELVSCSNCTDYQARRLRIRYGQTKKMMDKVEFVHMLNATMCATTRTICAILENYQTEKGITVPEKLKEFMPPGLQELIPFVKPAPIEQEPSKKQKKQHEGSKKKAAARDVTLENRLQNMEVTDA
T2 sequence (P49591 whole entry): as the sequence (P49591 whole entry, the tested form may be a part) above

B1: recombinant POT1 with a His6 tag at its C-terminal end (natural protein, human, UniProt Q9NUX5 1-634, looked up)
chain: MSLVPATNYIYTPLNQLKGGTIVNVYGVVKFFKPPYLSKGTDYCSVVTIVDQTNVKLTCLLFSGNYEALPIIYKNGDIVRFHRLKIQVYKKETQGITSSGFASLTFEGTLGAPIIPRTSSKYFNFTTEDHKMVEALRVWASTHMSPSWTLLKLCDVQPMQYFDLTCQLLGKAEVDGASFLLKVWDGTRTPFPSWRVLIQDLVLEGDLSHIHRLQNLTIDILVYDNHVHVARSLKVGSFLRIYSLHTKLQSMNSENQTMLSLEFHLHGGTSYGRGIRVLPESNSDVDQLKKDLESANLTANQHSDVICQSEPDDSFPSSGSVSLYEVERCQQLSATILTDHQYLERTPLCAILKQKAPQQYRIRAKLRSYKPRRLFQSVKLHCPKCHLLQEVPHEGDLDIIFQDGATKTPDVKLQNTSLYDSKIWTTKNQKGRKVAVHFVKNNGILPLSNECLLLIEGGTLSEICKLSNKFNSVIPVRSGHEDLELLDLSAPFLIQGTIHHYGCKQCSSLRSIQNLNSLVDKTSWIPSSVAEALGIVPLQYVFVMTFTLDDGTGVLEAYLMDSDKFFQIPASEVLMDDDLQKSVDMIMDMFCPPGIKIDAYPWLECFIKSYNVTNGTDNQICYQIFDTTVAEDVI
notes: also called His6-tagged POT1; pET-20b-POT1; not shown: His6, C-terminal, kept
On to B1, for which the binding result in experiment [1] is “binds”.

B2: GST-fused full-length POT1 (natural protein, human, UniProt Q9NUX5 1-634, looked up)
chain: B1 chain
notes: Held on beads in the GST pull-down; also called GST-POT1 FL; pGEX6P-1-POT1; not shown: GST, N-terminal, kept
For the molecule B2, the binding result in experiment [2] is reported as “binds”.
